Reference: the nanobody polyreactivity screen of Harvey et al. (2022)

Test: yeast display, Sf9 membrane polyspecificity reagent, FACS + sequencing; frameworks hold sequencing errors
Summary of the method: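 Genes from sorted yeast were amplified by colony PCR, read by MiSeq 2 × 250 sequencing and filtered on CDR length. These cells carried a synthetic nanobody library in Saccharomyces cerevisiae BJ5465 and were sorted by FACS into low and high (top ~1%) gates on anti-HA and streptavidin fluorescence. Polyreactivity is labelled according to the gate of origin.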

| Sequence | polyreactivity (PSR sort gate) |
| --- | --- |
| QVQLVESGGGLVQAGGSLRLSWAASGSTFNSYAMGCYRQAPWKERELVAAITWSGGSTFYADSVKGRVTISRDNAKNTVYLQMNSLKPEDTSVYYCNADGPYYPPYPSTYVDGDSWGQGTQVTVSS | low polyreactivity |
| QVQLVESGGGLVQAGGSLRLSCAASGSTFLYNTMGWYRQSPGKERELVAAITWSGGNTYYADSVKGRFTISRDNAKNTVYLQMNSLKPEDTAVYYCNAVWYPPKRKGFDYWGQGTQVTVSS | low polyreactivity |
| QVHLVESGGGLVQAGGSLRLSCAASGRIFRTYAMGWYRQAPGTERELVASITTSSDSPYYADSVKGRFTISRDNAKNTVYLQMNSLKPEDTAVYYCAADGDHPWWSQYDYWGQGTQVTVSS | low polyreactivity |
| QVQLVDSGGGLVQAGGSLRLSWAASGSTLYVNAIGFYRQAPGKERELVSAISWSGGSTNYADSVKGRFTISRDNAKNTVYLQMNSQKPEDTSVYYCAVYYRRWFSRYDYWGQGTQVTVSS | low polyreactivity |
| QVQLVESGGGLVQAGGSLRLSCAASGLTFGYYAMGWYRQAPGKERELVAAISVSGSTYYADSVKGRFTISRDNAKNTVYLQMNSLKPEDTAVYYCNRAIGYRKELDYWGQGTQVTVSS | high polyreactivity |
| QVQLVESGGGLVQAGGSLRLSCAASGITFGRNTMGWYRQAPGKERELVASISYSGTTTYYADSVKGRFTISRDNAKNTVYLQMNSLKPEDTAVYYCNKRWRYYDMDYWGQGTQVTVSS | low polyreactivity |
| QVQLLESGGGIVQAGGSLRLSCAASGRIFVPYAMGWYRQAPGKERELVAAISGRGDSTYYADSVKGRFTISRDNAKNSVYLQMNSLKPEDTAVYYCAKYRPYYTPSYWSRYDYWGQGTQVSVSS | high polyreactivity |
| QVQLVESGGGLVQAGGSLRLSCAASGITFGRNTMGWYRQAPGKERELVAAIDSGGNTYADSVKGRFTISRDNAKNTVYLQMNSLKPEDTAVYYCAVDGGEFSSYGYWGLGTQVTVSS | low polyreactivity |
| QVHLVESGGGLVQAGGSLRLSCAASGRTFYYYAMGWYRQAPGKERELVAAISGSGTNTYYADSVKGRFTISRDNAKNTVYLQMNRLKPEDTAVYYCAAEYFGFYTDGGVFDLYYWGQGTQVTVSS | low polyreactivity |
| QVQLVESGGGLVQAGGSLRLSCAASGNIFAIYAMGWYRPAPGKEREFVAAIDWSVASTYYADSVKGRFTISRDNAKNTVYLKMNSLKPEDTAVYYCAAELYCLKYGYYLSYDYWGQGTQVTVSS | high polyreactivity |
| QVQLVESGGGLVQAGRSLRLSCAASGFTFYYNAMGWYRQAPGKERELVAAISSGGSTYYADSVKGRFTISRDNAKNTVYLQMNSLKPEDTAVYYCAADSLYYRYDFWGQGTQVTVSS | low polyreactivity |
| QFQLVESGGGLVHAGGSLRLICAASGRTFVYNAMGWYRQAPGKERDLVAAISFGGGNTYYADSVKGRFTISRDNAKNTVYLQMNCLKPEDTAVYYCAKAYIGYWGASCYYAYDYWGQGTQVTVSS | low polyreactivity |
| QVQLVESGGRLVQAGGSLRVSCAASGSIFRIYSMGWYRQAPGKERELVATISSTGSTYYADSVKGRFTISRDNAKNSVYLQLNSQKPEDTAVYYCAALWKVSSRYWRMDYWGQGTQVTVSS | high polyreactivity |
| QVQLVESGGGLVQAGGSLRLSCAASGRIFDIYAMGWYRQAPGKERELVAGITWRAGSTYYADSVKGRFTISRDNAKNTVYLQMNSLKPEDTAVYYCAAEVWVTDPYWGDFYYWGHGTQVTVSS | low polyreactivity |
| QVQLQESGGGLVQAGGSPRLSCAESDNIYPDSVICWYRQAPGKERELVATIGFGATTNYADSVKGRLTISRDNAKNTVYLQMNSLKPEDTAVYYCAADPLNYEYFCYWGQGTQVTVSS | low polyreactivity |
| QVQLVESGGGLVQAGGSLRLSCDASGRIFFNTMGWYRQAPGKERELVAAISSGGSTSYADSVKGRFTISRDNAKNTVYLQMNSLKPEDTAVYYCADLKLYIYDYWGQGTQVTVSS | high polyreactivity |
| QVQLVESGGGLVQAGGSLRLSCAASGSIFSTYVMGWYRQAPGKERELVAAITVSVGSTYYADSVKGRFTISRDNAKNTVYLQMNSLKPEDTAVYYCAAYGGTGYPFDAYYHDYDYWGQGTQVSVSS | low polyreactivity |
| QVQLVESGGGLVQAGGILRLSCAPSGRTLPPNAMGWYRHAPGKERELFAGSTWSGGSTYYADSVKGRFTISRDNAKNTVYLPMNSLKPEVTAVYYCAASRSFPGYGLYYYWGQGTQVTVSS | low polyreactivity |
| QVHLVESGGRLVQAGGSLRLSCAESGFTFGSNVKGAYRQAPGKEREFVDAITSSGRTKYADSVKGRFTISRDNAKNTVYLQMNSLKPEDTAVYYCAARPSQWNYDYRRVYYWVQGTQVTVSS | high polyreactivity |
| QVQLVESGGGLVQAGGSLRLSCAASGSTFRANAMGWYRQAPGKERELVAAIRWRGVGTYYADSVKGRFTISRDNAKNTVYLQMNSLKPEDTAVYYCAARRLGRSGNGSWGQGTQVTVSS | high polyreactivity |
| QVQLVESGGGLVQAGGSLRLSCAASGIIFSHNVMGWYRQAPGKERELVAAITYSGGSTYYADSVKGRFTISRDNAKNTVYLLMNSLKPEDTAVYYCNALGVSRRDYDYWGQGTQVTVSS | low polyreactivity |
| QVQLVESGGGLVQAGGSLRLSCAASGSTFGFYMGWYRQAPGKERELVAAIDSSGGITYADSVKGRFTISRDNAKNTVYLQMNSLKPEDTAVYYCNTSYPIAPEDDYWGQGTQVTVSS | low polyreactivity |

| Sequence | polyreactivity (PSR sort gate) |
| --- | --- |
| QVQLVESGGGLVQAGGSLRLSCAASGRIFPYYAMGWYRQAPGKDRELVAANSYRGPRTSYADSVKGRFTISRDNAKNTAYLQRNSLKPEDTAVYYCAAVSVSWRGGRSSYEYWGQGTQVTVSS | high polyreactivity |
| QVQLVESGGGIVQAGGSLRLTCAASGRILGSNSIAWYRHAPGKERELVAAITSTGSTDYADSVKGRFTISRDNAKKTVYLQMNSLKPEDTAVYYCAADTSPYQDDYWGQGTQVTVSS | low polyreactivity |
| QVHLVDSGGGLVQAGGSLRLSCAASGSTFDYNAMGWYRQAPGQESELVAAISWRGGGTYYADSVKGRFTISRDNAKTTVYLQMNSLKPEDTAVYYCAASAYKGTGAEFDYWRQGTQVTVSS | low polyreactivity |
| QVQRVESGGGLVQAGGSLRLSCAASGFIFKDNAMGWYRQARGKERELVAVISGTGGRTNSADSVKGRFTISRDNAKNTVYLQMNSLKPEDTAVYYCAAEGYYTSTYDLYDYYYWGQGTQVTVSS | low polyreactivity |
| QVQHVDSGGGLVQAGGSLRLSCAASGSTFQLYAMGRDRQAPGKERELVASISWSGGSTYYADSVKGRFTISRDNAKNTVYLQMNSLKPEDTAVYSCNDDFWWRYRPGAVFPSYGYWGQGTQVTVSS | low polyreactivity |
| QVQLVESGGGLVQAGGSLRLSCAASGIILSPYTMGWYIQAPGKERELVAGISRSGGTTYYADSVKGRFTISRDNAKNTVYLQMNSLKPEDTAVYYCAAGLIYGYSGYDSWGQGTQVTVSS | low polyreactivity |
| QVQLVESGGGLVQAGGSLRLSCAASGIIFVYYAMGWYRQAPGKERELVAAINWSGGSTYYADSVKGRFTISRDNAKNTVYLQMNSLKPEDTAVYYCAASSYITSDQRFYYWGQGTQVTVSS | high polyreactivity |
| QVQLVESCGALVQASGTLRLSCAASGSIFGYNTMRWYRQAPGKERELVAAIYYSGGRTYYADSVKGRFTISRDNAKNTVYLQMNSLKPEDTAVYNCAARKGYRYYYRGQGTQVTVSS | high polyreactivity |
| QVQLVESGGGLVQEGGSLRLSCAASGSTFYYYAMGWYRQAPGKERELVAAISSSGSTYYADSVKGRFTISRDNAKNTVYLQMISLNPEDTAVFYCNADSRTAGLNSEYDYWGQGTQVTVSS | low polyreactivity |
| QVQLVESGGGLVQEGGSLRLICAASGFTFGAHGMGWYRQAPGKERELVAANNSRGSRTYYADSGKGRFTISRDNPKNTVFFQMNSLQPDDTAVYYCAADYYAFKFGRFDYWGHGTQVTVSS | high polyreactivity |
| QVQLVESGGGLVQAGGSLRLSCAASGSTLYPNAMGWYRHAPGKERELVAAISSGSSTYADSVKGRFTISRDNAKNTVYLQMNSLKPEDTAVYYCNADSRIHYDYWGQGTQLTVSS | low polyreactivity |
| QVQLLESGGGLVQAGGSLRLSCAASGRTFRHNVMAWYRQAPGNERELVAAISYSRGSTHYADSVKGRFTISRDNAKNTVYFQMNSLKPEANAVYYCNRYSYDAHFLYPFRGHDYWGQGTQVTVTS | low polyreactivity |
| QVQLVESGGGLVQAGGSLRLSCAASGYTFGYYTMGWYRQAPGKERELVASIDSGGGTNYADSVKGRFTISRDNAKNTVYLQMNSLKPEDTEVYYCAAEYPLYWVDDFESGWRYYYWGQGTQVTVSS | low polyreactivity |
| QVQHVESGGCLVQAGGILRLSCAASGSIFQSNTMGWYRQAPGKVRELVAYISNGGTTTYANSVKGRFTISRDNAKTTVYLQMNSLKPEDTAVYYCATYYWQYYEYDYWGQGTQVTVSS | low polyreactivity |
| QVQLVESGGGLVQAGGSLRLSCAASGFTFFLNAMVWSRPAPGKERELVAAITYSGDSTYYADSVKGRFTISRDNAKNTVYLQMNSLKPEDTAVYYCAAASKFGLYEYEYWGQGTQVTVSS | low polyreactivity |
| QVQLVESGGGLVQAGGSLRLSCAASGFIFDFYAMGWYRQAPGKERELVATINSSGTTNYADSVKGRFTISRDNAKNTVYLQMNSLKPEDTAVYYCATVEYLGHYTYDYWGQGTQVTVSS | low polyreactivity |
| LVQLVESGGGLVQAGGSLRLSCAASGFTFGRNAMGWYRQSPGKEREFVADISGSVGSTYYADSVKGRFTISRDNAKNSVYLQMNRLIPEDTAVYYCAADTLYPRWEFDYWGQGTQVTVSS | high polyreactivity |
| QVQLVESGGGLVQAGGSLRLSCAASGSTFAYNAMGWYRQAPGKERELVAVITWSDDRTYYADSVKGRFTISRDNAKNTVYLQMNSLKPEDTSVYYCAADRSGYWHYYTPYDYWGQGTQVTVSS | low polyreactivity |
| QVQLVESGGGLVQAGGSLRLSCAASGSTFGRNAMGWYRQAPGKERELVAAISWRSTPTYYADSVKGRFTISRDNAKNTVYLQMNSLKPEDTAVYYCAVYYYYPSTNGYHYDYWGHGTQVTVSS | high polyreactivity |
| QVQLVESGGGLVQAGGSLRLSCAASGFTFRAYAMGWYRQAPGKERELVAAITRSGVSTYYADSVKGRFTISRDNAKNTVYLQMNSLKPEDTAVYYCAAVAQRVGRSGTIEGDSWGQGTQVTVSS | high polyreactivity |
| QVQLVESGGGLVQAGGSLRLSCAASGSTFVSNAMGWYRPAPGKERELVAAISTSGGSTYYADSVKGRFTISRDNAKNTVYLLMNSLKPEDTAVYYCAKLLARGFRIWQDYDYWGQGTQVTVSS | low polyreactivity |
